Results as given in the DeepSol protein solubility set.

Test: soluble on expression in E. coli; label from the status in PepcDB or PDB records

Sequence	soluble on expression in E. coli
MKSYLVGGAVRDALLGLPVKDRDWVVVGATPQQMLDAGYQQVGRDFPVFLHPQSREEYALARTERKSGAGYTGFTCYAAPDVTLEADLLRRDLTVNALAQDADGAIIDPYGGQNDLRKRLLRHVSPAFSEDPLRVLRVARFAARYAHLGFRIAEETQALMAAIVEAGELAHLTPERVWKETESALTTRNPQVFFQTLRDCQALKVLFPEIDALYGVPAPAKWHPEIDTGLHTLMTVTMAAMLSPDVDVRFATLCHDLGKGLTPKALWPRHHGHGPAGVKLVEQLCARLRVPNDIRDLAKLVAEYHDLIHTLPILQPKTLVKLFDSIDAWRKPQRVQQIALTSEADVRGRTGFEASDYPQGRLLLEAWEVAQSVSTKEVVAAGFKGAEIREELTRRRIAAVAQWKEQRCPQPQG	not soluble
MDPLLTVLKERMRACQRRVSDRPRRQVVAIEWIDPPMASGNWIPELIALAGGENMLGTAGKHSPYIEWSTLLAIDPEVILVMPCGFDLERTRQELDQALQTYPQWQQLRALQTGQLYILDGNAYFNRPGPRLVDSLEILVEILHPCPLEHHHHHH	soluble
MTNNSGNKVQDIMTKNVATISPNQTVQEAAQIMSQKNIGALPVVENGQVKGMITDRDITLRVSSQGKDPSTVKVAEVMTNQVVTGTPNMSVQEAANVMAQHQVRRLPIVENNQLQGIVALGDIATNSASNEAAEQALTNISEPSQPQG	soluble
MSLRTIPLLCFNDVYRVNQKYNPQPGAPEDNSPDRTITVSQFAELLLSERSKWADRQSEDQDDQEGPSKEGLVLFAGDVFNPSVESSVTRGSHMVPIMNALKVDYACVGNHDFDFGFPHLTKLVESTSFPWLLSNIVDTNTGRQPEPLKRFIVTERCGVKIGLIGLVEKDWIATIPSWPHNFRYRSMKDTALELSRELRDPNGEHQVDIIIALTHCRVPNDIRLAIELGAVADKPGVENEHGIDLIVGGHDHIYYIGKGATSWEGYAGRKDVPGTTEDHGVRLIKSGTDFRDLTSANLTVTPTPLGSIRRQLITSLTGKHLYVLPSSPSSPPFEELVKSLLSSVSEALTKPVCFTLTPFDARSEVVRTQESGLGNWIADVLMHAYAESIVQAKGKEGGLGEEFEGDADAAILCGGTLRGDSQYGPGKISLGDILEILPFEDPVVCIELDGKGIWNALESALSKWPAQEGRFPIVSGLAVKWDHTRPPGQRILSIHQIAQPKKDDDDWEDPADMVDFKEQEDGTTVVVKQKKLQLGEEVKNEEGGRMYKVITRDYMAQGYDGFEALKNRNFIVDDENGQIMSSILRSFLLGSSYIFRHKQLEEAAHSHLSRRTSEGHHHHHH	soluble
MSSDDYESIDTPRVASLADMNRLPTQSRHSSYSTDDDEDVTPTPSASNSAPKNTILDPLQAQFLHPNSENSDIDEPRVQLREKKKATRAQDATVSHFLEDQVPNQKFKRRSAERHSMLAGAADFASRRSPFHLSGANGSGRWTDLFSSSRFKRKQRQELNNVPSSSYSNNDYGTYAGTQSIGGFSIASNSTGESFALSGTEDEIREEFRKIMLDKGLPEADKIISNTPLDQMKMMIENSRKQDNQAKGRSPEWVVRVLGEILKTKNIPECKQDIVTVRVQLVGQGVSFLNKFAVEVHDESGRTGADLICCLYSLVLKRLRSSEVGSKYELDLIDFLQEIVRCVRTLINTHVGLVLVLRRNSPVYSLLIQTLCVLNRREQNDHEAAEIRAIRVDVVRTCYTLIFVQHDTLSTPIEMTGQQKMFMELSLIAKAESKRLNEPVSRFRPLISCIDFLESRDPKQGMYVLLMINMMINGVDRNISDDQMWTEETMWQARMRLRSEAAKDKLHKYIEKFTTSETVNSQIRDVAQNMLTEHNADLETLMGKLENVKGEYDTLDGCFELLAANSEATGTETVLLSILQLMTLTNEDMSTKRSYMKLIETAISDILLHRTPIDPQADYKFVFEVPVAEIIDKMQDEEMAKKVRQATSAKQEAVAMQGEYWKTLCDFQKEAEELRKHINDPKIPLPPPTKMNLSAPSTSAGGSSALPPITGGPPPPPGLPPITGGPPPPPPPGGLPPITGGPPPPPPPGGLPPISGGPPPPPPPPGGCPPPPPPPPPGGFKGGPPPPPPPGMFAPMAPVIPDYLPPKKVPKVDGPMRKFPWGAHTINPRDIPRESFWVGTNEEQLTSDRMFDRLRTKFATKPAANSGTLGGVLNSKKKVKTAQVIHDDKLLQKLGILQGSIKMSHSELKLAILEVNEKVLTVGFLEQLRSAMPVEKELIDKLRAVNKAQFEEMPEGEQFVTRLLQIQGLPLRLDLVLFKMRFSEVLNELKPAMSSVMEACEEVRASEGFRTFLKLVLATGNFMGGATKNYSSAYAFDMRMLTRLVDTKDVDNRHTLLHHLIEEMKRIDPRRARFALTDFHHCIESSRVNADEIRKTVQLTENNIKKLENCLKVYKIQGERDLFDEKMRPFHEKAVKEFSTVSSMCGKMKNDWESLVKYYAFNDKKYPMEEFFADIRTFSEQYSNAWKELDAEAEAKRKEAEFETQKRKQLQQSQQERKPLQERQAINRVPRTPAAMIRVSTAADKAGVLDELERATGNADFLQTLMSATNSRTPRSGLPARTRGGGRLGGGLDRQRSRHQNALGQLQDLTGCASEPVLSGQFARSRNVPQNDLQRQNMELPSSVKPTTALDRAKAFGVGLPIGQNELKVRVRRKGQPAVPVTNINGTSQISPTHKENDPTGSSSTSSGPASSNTATSSSSGTVVPSTDDLLARLNDF	not soluble
MIPVTRMAVGKGTVSTRIKGLRGRRPSSFADILRPVVFWNITRACNLKCIHCYISAGPHPLPGELSTEEALGVARQLVEHGVPLVTLSGGEPLVRRDFWAIAKALSGHDTPKLALSSNGTLITRETAARLRRLGFSYVGISLDSVDPGVHDKFRGAPGAFKAAIRGARNALEEGLDVGFRLTITKYNLDDAPRIIRLASDMGVPRVAIYVVDLLGRATPDLAPSPEDLRRAIDAILEESVRHQDRVEVLLVRANFAGVYLADRLAKTRDEFLQLLSLVGSHGDCGRKSVSIYPDGTVRPCQFLEEVVIGDLRRQRLGEILSADNPLLKPFIAVDTMLRGPKCGGCPFKRVCGGGSRMRALKTTGEFWGDDPLCFIDPWSIARRWGYSAG	not soluble
MPPGKNFRRRKEDSSDEEDDETKFVVRSKLDEAKELQSLRKRQHGVSIATLLVGEKLPLEAELEDDPFKLKTGGVVDMKKVKDRSRDMTVDENDLNLGTSFSAETNRRDEDADMMKYIETELKKKKGMVEAEEQKVKVKNPEDLLYELPENINVSSAKKTEEMLSNQMLSGIPEVDLGIDAKIKNIINTEEAKAKLLAEQRNKKKDSGTSFVPTNIAVNYVQHNRFYHEDSNAPQRRNREEPKARPLRVGDTEKPAPEASPPNFRKRPNNEKATDDYHYEKFKKMNRRY	soluble
MLNPNKWLDVKKMLPRLAQKQWYAKTRYGYARGGETVHFVQNVRRYYDILTWVTQPLEHHHHHH	not soluble
SLVNMNVPDMILYNGKITTLDPSQPEVSAIAITDGLITAVGGDELLNSATEKTKKIDLKRKRAIPGLNDSHIHVIRGGLHYNMELRWEGVPSITIALEMLKEQARRTPAPQWVRVVGGWSEFQFKERRMPTLEEINAVSEDTPVFVLHLYDRALVNRAGLRALGYTKDTPDPPGCLIERDKRGNPTGLLIANPNASILYSSLGKAPILNFDDQINSTRHFMRELNRLGITSAIDAGGGFQNYPDDYRVVEHLAEKEQLTLRIAYNLFTQNPNHEYEDFASWAKIVSPGQGNDKYKMNGAGEMLVFSAADFEKFQMPRPELATMMEADLKKVISLLVENRWPFRLHATYDESITRFLNVFEEVNKEIPFNGLRWWFDHAETISDRSMERVKALNGGIAIQDRMAFQGEYFVDLYGKEAAKRTPPIYRMLDLGIPVGAGSDATRVSSYNPWVALYWMVAGKTIGGLSIYDEKNKLDRKVALELYSKGSAWFSGDEGKKGTLAVGQFADIAVLSADYFTVPEEEIKDLESLLTIMGGQVVYGNDEFKNLSPELPPASPDWSPTGVYGYGGANLAHTILSHDSHDNKLHSCSNPLHQHTHTVIGKDGTKWGIGCTCFAF	soluble
MSLRWQWRIYEEPLQEPLTTAQGVWRSRSGIYLRLEDEQGQVGYGEIAPLPGWGSETLNADIALCQQLPGHLTPEIMATIPEALPAAQFGFATAWQSVGRLPYRVRPWPICALLGSGQAALEQWQQSWQRGQTTFKWKVGVMSPEEEQAILKALLAALPPGAKLRLDANGSWDRATANRWFAWLDRHGNGKIEYVEQPLPPDQWQALLSLAQTVTTAIALDESVVSAAEVQRWVDRGWPGFFVIKTALFGDPDSLSLLLRRGLEPQRLVFSSALEGAIARTAIFHLLETWQPCHALGFGVDRWRSAPLLTTLTAYERLWERLDQGHHHHHH	soluble
MSLAQGIIENHLSKRSALLEQEKTSRHDYAFKQSMSPVAKTAAKVLADIRKKELKSIWSPTTTSNEKRDLKDVTFPGMSFTLSRDRMQKTALWKIVSAMPKGCLLHAHMEAMIDIDWMIEQAIELPGYYISSPVPLCPRTGSAGKWSEPFQFSYRPRLGSGANARNGSEPEISIWQAGYTPGRLVPVAAAAKMYPGGVEAFKAWAVSRMTINEEEALEHHHGIDDVWDKFRSCFLAIGGLFFTEPIFRRCIPRLLQQLHDDGIKYVELRLAPNPFYREGSNEAEPDFLYFLQCFQEEVDAYMSSPTGRGFWGAKIIWTAIRSFPDDLIKESMIHCLNSKKAYPSVITGFDFVGQEDAGRPLVDLLPLCKWFQQQCADEQLQIPFFLHAGECLGDGNDTDSNLVDAILLNSRRIGHAFSLYKHPLLIDLVKDKNILIEMCPISHEVLRLTSNILMHPMPALQARGVAVSLNNDDPAVLGHGKNGLSHDFYQVTAAFENTGLAGLATMAEDSIRWAAFEDETDSEWLQGIDGKGNGLKASRLAEWRTAFDEWCAWVVQEFGAESQIEGHHHHHH	soluble
MGSDKIHHHHHHMSFISKGAKIGENLKIGRNVVIEDGVVIGNNVMIGHNVVIRDGTIVGDNCVIFDGTVLGKLPFKSAISAVTEEKEFPPLKIGNGVTIGANCVIYRGSVLEDFVFVGDLVVIREDVKIGPYTVIGKGVTVENRTTIGRYVKIETNAYITALSTIEDYCFIAPEVTFTNDNFLGRTEERKKFFKGPTLKKGARIGANATILPGVVVGEDALVAAGSVVTRDVPDRKIVMGIPARVVRDVPEEQLLDNQSYYKEESS	not soluble
MAHHHHHHMPLRACVSRTPAQARLVEVVSDYVQHLMDMQASRCAETSLDGHVVPPPNAKYPSHDFFCATHAPAISVKKYTDRLVTYMHCSPEAFVFAVAYLRRLVLSGFPMHLQSIHRLLLTAVLVALKCRDDVYYHMSFYAEVGGVTSKDLRIMEIRFLSDLIRFEGEVSLADYHVVMVDMMRVTERRMITNISGKTEMCNRCGMSAGAFTTSIPGDLGCLHCKGDAFAHSWTSECELFWGPLNSAFSLPSGEV	not soluble
MSTETHYKRQLFVILKLFIIMSFMTKCPKCPTYESKKTTNVYRHLREVHNASEAEVDQFRIQRKEGKSLTTKGSGAWKCPVCELVIPTEKGLKNHMNQKHRKKPIDPSTITLATTSPTMVSPPPKRIQLPKSTEKSLVSSVATVRAQPTQKPGGRYKCPVENCTFFKTRKELALHFSEKHDPGSELETMSFETETEFKIWLTCRQEETCSSMQISLSSHDGNRITHFRLCRHEGGQLSLGATKKGATFELSLGATN	not soluble
MDMQVVPKIGISSVVHSKHIDPGSIDVVGNDIALFDTESVISLYNGPSKLEVVSIGLCLEGSTRFNISLREFELIPGRMVIALPNQIIEHRQFSSNFRGIFFAVSKSLLESLPKVGNVLSFFFFLKDYPCFDLNLHEQEMIKEYHAFIRKRLKNKDDRYRREVVMGLMQGFFFELCNIFNSYAPDASAVVKSKSRKEYIFERFYESLVQSYQSERSVKFYADQLCLTPKHLSGVVKEVSGKTVGEWIDELVILEAKALLNSSSMNIQEIADRLNFANQSFFGKYFKHYTGMSPKEYRKSR	not soluble
